From PMC4522201

Target: CEP-HSA (2-(ω-carboxyethyl)pyrrole derivative of HSA) (human) (UniProt P02768)
Test: SPR

Row | Kd [nM] | Substance
1 | 6.53 | CD36-Fc chimera (from UniProt P16671 1-472) (Fc fusion)
2 | 11.8 | TLR2-Fc chimera (from UniProt O60603 21-588) (Fc fusion)
